# Assay results reported in the nanobody polyreactivity screen of Harvey et al. (2022).
# Test: yeast display, Sf9 membrane polyspecificity reagent, FACS + sequencing; frameworks hold sequencing errors
# Summary of the method: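 A nanobody's polyreactivity label depends on the gate it was sorted from. Yeast display cells were stained with 10% biotinylated, detergent-solubilized Sf9 membrane reagent for 1 hour at 4 °C, enriched on streptavidin microbeads and sorted by FACS. The low and high (top ~1%) gates were set on anti-HA fluorescence for expression and streptavidin fluorescence for reagent binding.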
row,Sequence,polyreactivity (PSR sort gate)
1,QVQLEESGGGLVQAGGSLRFSCAASGSIFDYNAMGWYRQAPGTERELVAAITYSGGTTYADSVKGRFTISRDNAKNTVYLQMNSLKPEDTAVDYCAATSYDRFAYYYWGQGTQVTVSS,low polyreactivity
2,QVQLEESGGGLVQAGGSLRFSCAASGSTFLHYAMGWYRPAPGQERALVAAITWSGGSTYYADSVKGRFTISRDNAKNTVSLQMNSLKPEDTAVYYCAADLTYLYDYHYDYWGQGTQVTVSS,low polyreactivity
3,QVQLEESGGGLVQAGGSLRISCAASGRIFRKYTMGWYRQAPGKERELVAAITGTGGSTYYADSVKGRFTISRDNAKNTVYLQMNSLKPVVTAVYYCAADYSARYGYWGQGTQVTVSS,high polyreactivity
4,QVQLEESGGGLVQAGGSLRISSAASGSTLGSNAMGWYRQAPGKEMELVAAITWSGGTTYYADSVKGRFTIARDNPKNTVSLQMNSLKPEDTAVYYCATGQSVIYRYEYWGQGTQVTVSS,low polyreactivity
5,QVQLEESGGGLVQAGGSLRLICAASGGIFQKYAMGWYRQAPGKERELVASNNTGVRTYYADSVKGRFTISRDNAKNTVYLQMNSLKPEDTAVYYCNADGGGPRKYTRTRGHWGQGTQVTVSS,low polyreactivity
6,QVQLEESGGGLVQAGGSLRLICAASGSIFDSNSMGWYRQAPGKVRELVAGISRGGGSTYYADSVKGRFTISRDNAKNTVYLQMNSLKPEDTAVYYCNVLTYRWLYARRYEYWGQGTQVTVSS,high polyreactivity
7,QVQLEESGGGLVQAGGSLRLICAATGSIFSFYAMGWYRQAPGKEREWVAAIDVSGGSTYYADSVKGRFTISRDNAKNTVYLQMNSLKPEDTAVYYCAKDVRDQYDYWGQGTQVTVSS,low polyreactivity
8,QVQLEESGGGLVQAGGSLRLSCAAAGINFTYYAMGWYRQAPGKERELVAAISYRGGSTYADSVKGRFTISRDNAKNTVYLPMNSLKPEDTAVYYFAADSPVPDSGEGYWGQGTQVTVSS,high polyreactivity
9,QVQLEESGGGLVQAGGSLRLSCAASGFIFFAYAMGWYRQAPGKERELVAAISRTGGSTYYADSVKGRFTISRDNAKNTVYLLMNSLKPEDTAVYYCAAVVSRTYQWWTYDYWGQGTQVTVSS,high polyreactivity
10,QVQLEESGGGLVQAGGSLRLSCAASGFIFFKYAMGWYRQAPGKEREFVAAISKSGTSTYYADSVKGRFTISRDNAKNTVYLQMNSLKPEDTAVYYCAKRYLTRYKGYYYWGQGTQVTVSS,high polyreactivity
11,QVQLEESGGGLVQAGGSLRLSCAASGFIFGYYGMGWYRQAPGKERELVAAITDGGSTTYADSVKGRFTISRDNAKNTVYLQMNSLKPEDTAVYYCNAEAGGFDYYGKTYRYGDYWGQGTQVTVSS,low polyreactivity
12,QVQLEESGGGLVQAGGSLRLSCAASGFIFVRNAMGWYRQAPGKERELVAAITRSGGSTSYADSVKGRFTISRDNAKNTVYLQMNSLKPEDTAVYYCAPQYGYWGQGTQVTVSS,high polyreactivity
13,QVQLEESGGGLVQAGGSLRLSCAASGFIFYWYAMGWYIKAPGKERELVAAITRSGGRTYYADSVKGRFTFSRDNAKNTVYLQMNRLKPEDTAVYYCNAGYWLSPYKFGYWGQGTQVTVSS,high polyreactivity
14,QVQLEESGGGLVQAGGSLRLSCAASGFIYRGYTMGWYRTAPGKERELVAGITSTASTNYADSVKGRFTISRDNAKNTVYLQMNSLKPEDTAVYYCAAGVPYRLRNRYYYWGQGTQVTVSS,high polyreactivity
15,QVQLEESGGGLVQAGGSLRLSCAASGFSFVTYPMGWYRQAPGKEREFVATISRSGGSTYYADSVKGRFTISRDNAKNTVYLQMNSLKPEDTAVYYCAARGRYPYRYGYWGQGTQVTVSS,high polyreactivity
16,QVQLEESGGGLVQAGGSLRLSCAASGFTFELYAMGWYRQAPGKVRELVAAISYSGGSTYYADSVKGRFTISRDNAKNTVYLQMNSLKPEDTAVYYCNAVYWPYSGPVYTIVDYWGQGTQVTVSS,low polyreactivity
17,QVQLEESGGGLVQAGGSLRLSCAASGFTFGSYAMGWYRQAPGKEREFVAAISLGGARTYYADSVKGRFTMSRDNAKNTVYLQMHSLKPEDTAVYYGNARGIGRSTKWSSRDYWGQGTQVTVSS,high polyreactivity
18,QVQLEESGGGLVQAGGSLRLSCAASGFTFNPYTMGWYRQAPGKERELVAAITSSGGSTYYADSVKGRFTISRDNAKNTVYLQMNSLKPEDTAVYYCAKLRTASIYDYWGQGTQVTVSS,low polyreactivity
19,QVQLEESGGGLVQAGGSLRLSCAASGFTFPWNVMGWYRQAPGKEREFVAAISKSAGSTFYADSVKGRFTISRDNAKNTVYLQMNSLKPEDTAVYYCAKPRVPGVHVQEMYYWGQGTQVTVSS,low polyreactivity
20,QVQLEESGGGLVQAGGSLRLSCAASGFTFRLYAMGWYRHAPGKERELFARISSGGSTHYADSVKGRFTISRDNAKNTVFLQMNSLKPEDTAVYYCAAGWGYWRSYGSWGQGTQVTFSS,high polyreactivity
21,QVQLEESGGGLVQAGGSLRLSCAASGFTFRRYAMGWYRQAPGKERELVAAITRSGSSTYYADSVKGRFTISRDNAKNTVYLQMNSLKPEDTAVYYCARYHLRPTDGFDYWGQGTQVTVSS,high polyreactivity
22,QVQLEESGGGLVQAGGSLRLSCAASGFTFSGYDMGWYRQAPGKERELVAGISSGGVSTTYADSVKGRFTISRDNAKNTVYLQMNSLKPEDTAVYYCNAEWTSFDWGQGTQVTVSS,low polyreactivity

row,Sequence,polyreactivity (PSR sort gate)
1,QVQLEESGGGLVQAGGSLRLSCAASGFTFSGYDMGWYSPAPGKERELVAGISYGGVSTTYADSVKGRFTISRDNAKNTVYVQMNSLKPEDTAVYYCNAEWTSFDWGQGTQVTVSS,low polyreactivity
2,QVQLEESGGGLVQAGGSLRLSCAASGGTFTNYAMGWYRQAPGTERELVAAITDSGATTYYADSVKGRFTISRDNAKNTVYLQMNRLKPEDNAVYYCNAELDLYTDFDYWGQGTQVTESS,low polyreactivity
3,QVQLEESGGGLVQAGGSLRLSCAASGIIFAYYAMGWYRQAPGKERELVGTNYADSVKGRFTISRDNAKNTVYLQMNSLKPEDTAVYYCAVVGGEFSSYGYWGQGTLVTVSS,low polyreactivity
4,QVQLEESGGGLVQAGGSLRLSCAASGIIFSYYDMGRYRQAPGKERELVATITRKGGSTYYADTVKGRFTISRDYAKNTVYFQMNSLKPEDTAVYYCAAQTTVYIYDYWGQGSQVTVSS,low polyreactivity
5,QVQLEESGGGLVQAGGSLRLSCAASGIIFWWYAMGWYRQAPGKERELVAAISGTGGSTYYADSVKGRFTISRDNAKNTVYLQINRLKPEDTAVYFCAARGKSSSFYDYDYWGQGTQVTVSS,low polyreactivity
6,QVQLEESGGGLVQAGGSLRLSCAASGITFPRYAMGWYRQAPGKERELVAAIRWNGGSTYYADSVKGRFTISRDNAKNTVYLQMNSLKPEDTAVYYCAARKDPSFSSFGYGYWGQGTQVTVSS,high polyreactivity
7,QVQLEESGGGLVQAGGSLRLSCAASGITFRAYAMGWYRQAPGKERELVAAITGRGGRTYYADSVKGRFTISRDNAKNTVYLQMNSLKPEDPAVYYCNAYLWRVNQTYDYWGQGTQVTVSS,high polyreactivity
8,QVQLEESGGGLVQAGGSLRLSCAASGITFRYYAMGWYRQAPGKEWELVAAITRSGSSTFYADSVKGRFTISRDNAKNTVYLQMNSLKPEDSAVYYCAAESVRAVFPDRYKYWGQGTQVTVSS,high polyreactivity
9,QVQLEESGGGLVQAGGSLRLSCAASGITFSDYAMGWYRQAPGKERELVAGISFTVGSTYYADSVKRPFTISRDNAKNTVYLQMNSLKPEDTAVYLCNADSFVDLDYWGQGTQVTVSS,low polyreactivity
10,QVQLEESGGGLVQAGGSLRLSCAASGITFVDYDMGWYRQATGKERELVAAITTGSSTYYADSVKGRFTISRDNAKNTVYLQMNSLKPEDTAVYYCARDLEYDYYQQWSYGYWGQGTQVTVSS,low polyreactivity
11,QVQLEESGGGLVQAGGSLRLSCAASGITFWHNTMGWYRQATGKEREMVAAISWTGGRTYYADSVKGRFTISRDNAKNTVYLQMNSLKPDDTAVYYCAADFSWTPSGNYDSWGQGTQVTVSS,low polyreactivity
12,QVQLEESGGGLVQAGGSLRLSCAASGITLAHNAMGWYRQAAGKERELVASITESGGSTYYADSVKGRFTISRDNAKNTVYLQMNRLKPEDTAVYYCAVRPTVGYWTVYYWGQGTQVTVSS,high polyreactivity
13,QVQLEESGGGLVQAGGSLRLSCAASGITSPAYAMGWYRQAPGKEREFVAAISSSGGSTYYADSVKGRFTISRDNAKNTVYLQMNSLKPEDTAVYYCAVRGRISSVSRYGYWGQGTQVTVSS,high polyreactivity
14,QVQLEESGGGLVQAGGSLRLSCAASGLTFAYNTMGWYRQAPGKEREFVASISSSGGNTYYADSVKGRFTISRDNAKNTVYLQMNSLKPEDTAVYYCAAKKKYHYVASYKRFEYWGQGTQVTVSS,low polyreactivity
15,QVQLEESGGGLVQAGGSLRLSCAASGLTFPSNAMGWYRQATGKERALVASISKRGGRTYYADSVKGRFTISRDNAKHTVYLQMNSLKPEDTAVYDCATPYAYPGSVQYAGYNYWGQGTQVTVSS,high polyreactivity
16,QVQLEESGGGLVQAGGSLRLSCAASGNIFPRYAMGWYRQAPGKERELVAAISYSGARTYYADSVKGRFTISRDNAKNTVYLQMNSLKPEDTAVYYCNKRVYYPWGQGTQVTVSS,high polyreactivity
17,QVQLEESGGGLVQAGGSLRLSCAASGRIFNTNAMGSYRQAPGKERELVAGITYSGDSTYYADSVKGRFTISRDNAKNTVYLQMNSLKPEDTAVYYCATDPASPYLYDYWGQGTQVTVSS,low polyreactivity
18,QVQLEESGGGLVQAGGSLRLSCAASGRIFPRNAMGWYRQATGKERELVASITSGGSTNYADSVKGRFTISRDNAKNTVYLQMHSLKPEDTAVYYCAADRTGYQLETTEYDYWGQGTQVTVSS,high polyreactivity
19,QVQLEESGGGLVQAGGSLRLSCAASGRIFPTYVMGWYRQAPGKERELVAAITSIDGRTYYADSVKGRFTISRDNAKNTVYLQMNSLKPEDTAVYYCAADYDYLSISEGYYWGQGTQVTVSS,low polyreactivity
20,QVQLEESGGGLVQAGGSLRLSCAASGRIFQRNAMGWYRQAPGKEREFVAAITKSGGGTYADSVKGRFTISRDNAKNTVYLQMNSLKAEDTAVYYCNVVPVWRPYSLINWQKDFGYWGQGTQVTVSS,high polyreactivity
21,QVQLEESGGGLVQAGGSLRLSCAASGRIFRGNAIAWYRQAPGKERELVASITRGNNTYYADSVKGRFTISRDNAKNTVYLQMNSLKPEDTAVYYCAKRYIYRYYWGQGTQVTVSS,high polyreactivity
